These results are taken from patent US20160193292A1 (CURATORS OF THE UNIVERSITY OF MISSOURI, published 2016).

To fix the notation:
B3: Plenty of SH3 domains (POSH) (other)
chain: MDESALLDLLECPVCLERLDASAKVLPCQHTFCKRCLLGIVGSRNELRCPECRTLVGSGVDELPSNILLVRLLDGIKQRPWKPGPGGGGGTTCTNTLRAQGSTVVNCGSKDLQSSQCGQQPRVQAWSPPVRGIPQLPCAKALYNYEGKEPGDLKFSKGDIIILRRQVDENWYHGEVSGVHGFFPTNFVQIIKPLPQPPPQCKALYDFEVKDKEADKDCLPFAKDDVLTVIRRVDENWAEGMLADKIGIFPISYVEFNSAAKQLIEWDKPPVPGVDTAECPSATAQSTSASKHPDTKKNTRKRHSFTSLTMANKSSQGSQNRHSMEISPPVLISSSNPTAAARISELSGLSCSAPSQVHISTTGLIVTPPPSSPVTTGPAFTFPSDVPYQAALGSMNPPLPPPPLLAATVLASTPSGATAAVAAAAAAAAAAGMGPRPVMGSSEQIAHLRPQTRPSVYVAIYPYTPRKEDELELRKGEMFLVFERCQDGWYKGTSMHTSKIGVFPGNYVAPVTRAVTNASQAKVSMSTAGQASRGVTMVSPSTAGGPTQKPQGNGVAGNPSVVPTAVVSAAHIQTSPQAKVLLHMSGQMTVNQARNAVRTVAAHSQERPTAAVTPIQVQNAACLGPASVGLPHHSLASQPLPPMAGPAAHGAAVSISRTNAPMACAAGASLASPNMTSAMLETEPSGRTVTILPGLPTSPESAASACGNSSAGKPDKDSKKEKKGLLKLLSGASTKRKPRVSPPASPTLDVELGAGEAPLQGAVGPELPLGGSHGRVGSCPTDGDGPVAAGTAALAQDAFHRKTSSLDSAVPIAPPPRQACSSLGPVMNEARPVVCERHRVVVSYPPQSEAELELKEGDIVFVHKKREDGWFKGTLQRNGKTGLFPGSFVENI
notes: Endogenous scaffold protein precipitated or detected in T-cell lysates (Co-IP, IP-FCM); also called Sh3Rf1
B4: JNK-interacting protein 1 (JIP-1) (other, UniProt Q9WVI9 1-707, looked up)
chain: MAERESGLGGGAASPPAASPFLGLHIASPPNFRLTHDISLEEFEDEDLSEITDECGISLQCKDTLSLRPPRAGLLSAGSSGSAGSRLQAEMLQMDLIDAAGDTPGAEDDEEEEDDELAAQRPGVGPPKAESNQDPAPRSQGQGPGTGSGDTYRPKRPTTLNLFPQVPRSQDTLNNNSLGKKHSWQDRVSRSSSPLKTGEQTPPHEHICLSDELPPQGSPVPTQDRGTSTDSPCRRSAATQMAPPSGPPATAPGGRGHSHRDRIHYQADVRLEATEEIYLTPVQRPPDPAEPTSTFMPPTESRMSVSSDPDPAAYSVTAGRPHPSISEEDEGFDCLSSPERAEPPGGGWRGSLGEPPPPPRASLSSDTSALSYDSVKYTLVVDEHAQLELVSLRPCFGDYSDESDSATVYDNCASASSPYESAIGEEYEEAPQPRPPTCLSEDSTPDEPDVHFSKKFLNVFMSGRSRSSSAESFGLFSCVINGEEHEQTHRAIFRFVPRHEDELELEVDDPLLVELQAEDYWYEAYNMRTGARGVFPAYYAIEVTKEPEHMAALAKNSDWIDQFRVKFLGSVQVPYHKGNDVLCAAMQKIATTRRLTVHFNPPSSCVLEISVRGVKIGVKADDALEAKGNKCSHFFQLKNISFCGYHPKNNKYFGFITKHPADHRFACHVFVSEDSTKALAESVGRAFQQFYKQFVEYTCPTEDIYLE
notes: Endogenous protein in T-cell lysates

The target of assay [1] is B4. In words: IP-FCM with α-JIP-1 beads in the presence of Tat-POSH.
In assay [2] the target is B3. Briefly: IP-FCM with α-POSH beads, lysates of stimulated OT-I T cells.
Procedure: Associated proteins were assessed by immunoblot. […] Data shown are representative of 6 independent experiments. […] Red histogram represents primary analyte and is shown to serve as a bead loading control.
Assay [3] concerns the target B3. In words: IP-FCM with α-POSH beads in the presence of Tat-POSH.
For a further assay, the target named is Rac1 (UniProt P63001 1-189). Briefly: Co-IP with antibodies against Rac1 and immunoblot, OT-I blasts re-stimulated with OVA-Tet/α-CD28.

Procedure for Rac1: The beads were incubated with the lysates washed and probed with antibodies against the Co-IP target. The levels of associated molecules (secondary analyte/Co-IP target) were quantified relative to IP target (primary analyte/loading control). Specificity was determined by comparison to both isotype and negative control antibodies (FIG. 5 and FIG. 6). […] Shaded histogram represents the staining of an isotype control. […] These two negative controls were used to establish significance of shift above background.
Associated proteins were assessed by immunoblot.

B1: JNK1 (enzyme, UniProt Q91Y86 1-384, looked up)
chain: MSRSKRDNNFYSVEIGDSTFTVLKRYQNLKPIGSGAQGIVCAAYDAILERNVAIKKLSRPFQNQTHAKRAYRELVLMKCVNHKNIIGLLNVFTPQKSLEEFQDVYIVMELMDANLCQVIQMELDHERMSYLLYQMLCGIKHLHSAGIIHRDLKPSNIVVKSDCTLKILDFGLARTAGTSFMMTPYVVTRYYRAPEVILGMGYKENVDLWSVGCIMGEMVCHKILFPGRDYIDQWNKVIEQLGTPCPEFMKKLQPTVRTYVENRPKYAGYSFEKLFPDVLFPADSEHNKLKASQARDLLSKMLVIDASKRISVDEALQHPYINVWYDPSEAEAPPPKIPDKQLDEREHTIEEWKELIYKEVMDLEERTKNGVIRGQPSPLAQVQQ
notes: Endogenous protein in T-cell lysates; also called 46KD JNK1
Consider B1, for which the binding result in assay [1] and in assay [2] was “binds” throughout.

B2: MLK-3 (enzyme, UniProt Q80XI6 1-850, looked up)
chain: MEPLKNLFLKSPLGSWNGSGSGGGGGTGGVRPEGSPKATAAYANPVWTALFDYEPNGQDELALRKGDRVEVLSRDAAISGDEGWWAGQVGGQVGIFPSNYVSRGGGPPPCEVASFQELRLEEVIGIGGFGKVYRGSWRGELVAVKAARQDPDEDISVTAESVRQEARLFAMLAHPNIIALKAVCLEEPNLCLVMEYAAGGPLSRALAGRRVPPHVLVNWAVQIARGMHYLHCEALVPVIHRDLKSNNILLLQPIEGDDMEHKTLKITDFGLAREWHKTTQMSAAGTYAWMAPEVIKASTFSKGSDVWSFGVLLWELLTGEVPYRGIDCLAVAYGVAVNKLTLPIPSTCPEPFAQLMADCWAQDPHRRPDFASILQQLEALEAQVLREMPRDSFHSMQEGWKREIQGLFDELRAKEKELLSREEELTRAAREQRSQAEQLRRREHLLAQWELEVFERELTLLLQQVDRERPHVRRRRGTFKRSKLRARDGGERISMPLDFKHRITVQASPGLDRRRNVFEVGAGDSPTFPRFRAIQLEPTESGQTWGRQSPRRLEDSSNGERRACWAWGPSSPKPGEAQNGRRRSRMDEATWYLDSDDSSPLGSPSTPPALNGNPPRPSPEPEEPRRAGPTERGNSSGTPKLIQRALLRGTALLASLGLGRDLQPPGGLSRERGESPTAPPPAQMPSPCPPELPSTPLIRLSQTTPDAHSSPTPGPLLLDLGVPSGQPSAKSPRREETRGRTVSPPPGISRSAPGTPGTPRSPPLGLISRPRPSPLRSRIDPWSFVSAGPRPSPLPSPQPAPRRAPWTLFPDSDPFWDSPPANPFRGGSQDCRTQTKDMGAQAPWAPEAGP
notes: Endogenous protein in T-cell lysates; also called MAP3K protein MLK-3
Turning to B2, the binding result in assay [3] was “binds”.
Turning to B3, the binding result with Rac1 is reported as “binds”.
Turning to B4, in assay [2], the binding result is “binds”.
